Experimental data from patent US20030207791A1, “Materials and methods relating to the treatment of leukaemias” (priority 2000, published 2003).

Assays:
[1] = target: T1, GST-NCoR (Mus musculus, UniProt Q60974); assay: GST-NCoR pull-down assay with in vitro translated 35S labelled proteins; type: binding
T1 construct: made in house
T1 sequence (Q60974 1782-2453): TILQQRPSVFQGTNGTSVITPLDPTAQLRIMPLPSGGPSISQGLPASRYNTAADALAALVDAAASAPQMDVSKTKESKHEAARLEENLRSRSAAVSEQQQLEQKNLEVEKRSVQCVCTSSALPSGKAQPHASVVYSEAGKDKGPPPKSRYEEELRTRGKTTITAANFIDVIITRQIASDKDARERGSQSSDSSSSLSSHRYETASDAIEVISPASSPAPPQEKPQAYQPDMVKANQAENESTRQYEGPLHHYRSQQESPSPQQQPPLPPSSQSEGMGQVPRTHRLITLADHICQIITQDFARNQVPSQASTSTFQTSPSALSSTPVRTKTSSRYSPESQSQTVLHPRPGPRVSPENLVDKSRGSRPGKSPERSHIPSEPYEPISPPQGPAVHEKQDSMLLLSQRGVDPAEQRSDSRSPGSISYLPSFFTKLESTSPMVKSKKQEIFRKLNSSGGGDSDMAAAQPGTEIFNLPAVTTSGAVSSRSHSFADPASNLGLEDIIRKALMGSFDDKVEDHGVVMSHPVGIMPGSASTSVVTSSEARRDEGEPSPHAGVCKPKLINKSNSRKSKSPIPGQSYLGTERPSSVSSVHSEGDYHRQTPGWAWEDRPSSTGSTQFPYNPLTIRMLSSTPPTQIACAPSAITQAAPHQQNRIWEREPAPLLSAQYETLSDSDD
Protocol: FIG. 1. Enhanced recruitment of NCoR by PML-RAR is due to the coiled coil region of PML. Increasing amounts of GST -NCoR (from 150 ng to 10 μg) coupled to agarose beads were incubated with the indicated in vitro translated, ^35-S labelled proteins. On the left, a schematic representation of the in vitro translated products, with the tripartite motif of PML highlighted (R, RING finger; B, B boxes; CC, coiled coil). The input lanes are loaded with the same amounts used in the pull-down experiments.
Recruitment of the NCoR-HDAC complex is crucial for the transforming potential of PML-RAR. At low concentrations of RA (1-100 nM), the stability of the PML-RAR-NCoR complex is higher than that of the RAR-NCoR complex (Grignani et al., 1998; He et al., 1998; Lin et al., 1998). […] Pull-down assays were performed by incubation of in vitro translated, ^35S labelled PML-RAR or RAR with GST-NCoR coupled to agarose beads.
GST-NCoR (1782-2453) or GST-NCoR (RDIII) purification and in vitro interaction experiments were performed as described, incubating the indicated amounts of GST-NCoR attached to a constant amount of glutathione-agarose beads in the presence of the appropriate ^35-S labelled, in vitro translated proteins(Gelmetti et al., 1998; Grignani et al., 1998; Zamir et al., 1996). The input lanes represent 100% of the total. Coimmunoprecipitation experiments were performed as described(Gelmetti et al., 1998), using extracts from transiently transfected COS-1 cells, or in vitro translated products.

[2] = tested on: RARE-G5-TATA reporter (GAL4-VP16 driven transcription); assay: Transcriptional repression of GAL4-VP16 activation, RARE-G5-TATA reporter, transfected HeLa cells; type: cell-based
Protocol: FIG. 2. Role of the coiled coil of PML in the altered transcriptional properties of PML-RAR (A): Transcriptional repression by RAR and fusion proteins. Hela cells were co-transfected with the RARE-G5-TATA reporter in the absence (C) or presence of increasing amounts (50, 100, 250, 1000 ng) of the indicated expression vectors and then harvested 48 hours after transfection. Levels of expression of RAR and fusion proteins after transfection are shown in (C). (B) RARE and NCoR dependent transcriptional repression by RAR and fusion proteins. Hela cells were co-transfected with the RARE-G5-TATA or the G5-TATA, reporters and 1 μg of control expression vector (C), RAR (R), PML-RAR (P/R) and their respective AHT derivatives, as indicated. (D) RA sensitivity of RAR and fusion proteins. Cells were co-transfected with 500 ng of the indicated expression vectors. 24 hours after transfection, RA was added at the following concentrations: 1, 10, 100 nM, 1, 10 μM, and cells were harvested after additional 24 hours.
To test this hypothesis, the inventors devised an artificial, reporter system to measure transcriptional repression by RAR and chimeric proteins. The RARE-G5-TATA reporter construct has five GAL4 response elements fused to a minimal promoter region: upstream of the GAL4 sites, a RA responsive element (RARE) allows binding of RAR (or fusion proteins). […] RAR over-expression led to decrease of GAL4-VP16 activation, with 30-40% repression observed with the maximal amount of co-transfected RAR expression vector (1 μg, FIG. 2A), while it exerted no effect on the GAL4-VP16-mediated activation of a cognate promoter lacking the RARE (FIG. 2B). A RAR construct carrying the AHT mutation, which abrogates NCoR binding (Horlein et al., 1995), was unable to prevent activation of the RARE-G5-TATA promoter by GAL4-VP16 (FIG. 2B).
Next, the inventors tested the transcriptional regulatory functions of PML-RAR (or derivatives). […] At the maximal concentration tested (1 μg), the inventors observed 80-90% repression with PML-RAR and 30-40% with RAR (FIG. 2A).
Transient transfection of HeLa, NIH 3T3, SAOS and C33A cells was performed by calcium phosphate as described (Lillie and Green, 1989; Minucci et al., 1994). p53-/- MEFs were transiently transfected by lipofection as described (Pearson et al., 2000). Light units were normalized to expression of a co-transfected β-galactosidase expression plasmid. Results are presented as the mean+standard deviations of at least three independent experiments.

[3] = tested on: U937 cells expressing PML-RAR under the control of an inducible promoter; assay: Differentiation (CD14) of U937 cells with inducible PML-RAR treated with vitamin D and TGFβ; type: cell-based; details: for differentiated, CD14+ cells: cells expressing the coiled coil of PML, vitamin D and TGFβ
Text: The cells were either uninduced (ctr column), or induced to express PML-RAR (PML-RAR column). Cells were transduced with retroviral vectors encoding the coiled coil of PML (RBCC) and GFP as a marker, or with retroviral vectors encoding GFP alone as a control (control). […] In cells expressing the coiled coil of PML (gated in the cytofluorimetric analysis based on the positivity for the GFP marker), PML-RAR was unable to block efficiently differentiation (from 90% to 70%). Levels of expression of PML-RAR were unchanged by expressing the coiled coil region of PML.
RAR oligomerization through the coiled coil region of PML is required for its leukemogenic activity, and deletion of the PML coiled coil is sufficient to lead to loss of oncogenic potential (Minucci et al., 2000). Small molecule compounds able to disrupt PML-RAR oligomers would therefore be able to revert the leukemic phenotype.

B1: RAR: retinoic acid receptor α, wild type (protein)
chain: MASNSSSCPTPGGGHLNGYPVPPYAFFFPPMLGGLSPPGALTTLQHQLPVSGYSTPSPATIETQSSSSEEIVPSPPSPPPLPRIYKPCFVCQDKSSGYHYGVSACEGCKGFFRRSIQKNMVYTCHRDKNCIINKVTRNRCQYCRLQKCFEVGMSKESVRNDRNKKKKEVPKPECSESYTLTPEVGELIEKVRKAHQETFPALCQLGKYTTNNSSEQRVSLDIDLWDKFSELSTKCIIKTVEFAKQLPGFTTLTIADQITLLKAACLDILILRICTRYTPEQDTMTFSDGLTLNRTQMHNAGFGPLTDLVFAFANQLLPLEMDDAETGLLSAICLICGDRQDLEQPDRVDMLQEPLLEALKVYVRKRRPSRPHMFPKMLMKITDLRSISAKGAERVITLKMEIPGSMPPLIQEMLENSEGLDTLSGQPGGGGRDGGGLAPPPGSCSPSLSPSSNRSSPATHSP
- higher amounts of GST-NCoR required to obtain significant binding, compared with PML-RAR ([1]; GST-NCoR 150 ng to 10 μg): 15-30 fold
- amount of expression vector necessary to measure significant transcriptional repression [2]: at least 250 ng
- repression of GAL4-VP16 activation ([2]; maximal amount of expression vector, 1 μg): 30-40%

B2: CC-RAR: fusion of the coiled coil region of PML to RAR (protein)
chain: SELKCDISAEIQQRQEELDAMTQALQALQEQDSAEGAVHAQMHAAVGQLGRARAETEELIRERVRQVVAHVRAQERELLEAVDARYQRDYEEMASRLGRLDAVLQRIRTGSALVQRMKCYASDQEVLDMHGFLRQALCRLRMASNSSSCPTPGGGHLNGYPVPPYAFFFPPMLGGLSPPGALTTLQHQLPVSGYSTPSPATIETQSSSSEEIVPSPPSPPPLPRIYKPCFVCQDKSSGYHYGVSACEGCKGFFRRSIQKNMVYTCHRDKNCIINKVTRNRCQYCRLQKCFEVGMSKESVRNDRNKKKKEVPKPECSESYTLTPEVGELIEKVRKAHQETFPALCQLGKYTTNNSSEQRVSLDIDLWDKFSELSTKCIIKTVEFAKQLPGFTTLTIADQITLLKAACLDILILRICTRYTPEQDTMTFSDGLTLNRTQMHNAGFGPLTDLVFAFANQLLPLEMDDAETGLLSAICLICGDRQDLEQPDRVDMLQEPLLEALKVYVRKRRPSRPHMFPKMLMKITDLRSISAKGAERVITLKMEIPGSMPPLIQEMLENSEGLDTLSGQPGGGGRDGGGLAPPPGSCSPSLSPSSNRSSPATHSP
- binding to GST-NCoR ([1]; increasing amounts of GST-NCoR): same characteristics of binding as PML-RAR
- capacity to repress GAL4-VP16 driven transcription [2]: as strongly as PML-RAR

B3: coiled coil of PML: coiled coil of PML including the additional amino-terminal region, expressed from retroviral vector (protein)
chain: MEPAPARSPRPQQDPARPQEPTMPPPETPSEGRQPSPSPSPTERAPASEEEFQFLRCQQCQAEAKCPKLLPCLHTLCSGCLEASGMQCPICQAPWPLGADTPALDNVFFESLQRRLSVYRQIVDAQAVCTRCKESADFWCFECEQLLCAKCFEAHQWFLKHEARPLAELRNQSVREFLDGTRKTNNIFCSNPNHRTPTLTSIYCRGCSKPLCCSCALLDSSHSELKCDISAEIQQRQEELDAMTQALQEQDSAFGAVHAQMHAAVGQLGRARAETEELIRERVRQVVAHVRAQERELLEAVDARYQRDYEEMASRLGRLDAVLQRIRTGSALVQRMKCYASDQEVLDMHGFLRQALCRLR
- differentiated, CD14+ cells ([3]; PML-RAR induced): 70%
- toxicity ([3]; uninduced cells): did not notice appreciable toxicity
- differentiated, CD14+ cells ([3]; uninduced): 90%
